For data set [1], the target named is T1, NF-kB p65 (RelA) (UniProt Q04206 Q04206:1-551). Description: competition; primary screen 1.33. As to conditions: protein: extract; tags: TPA and CI-stimulated Jurkat nuclear extract, Active Motif TransAM kit. As for the experimental part: (§1) The measurement was performed in accordance with the instructions attached to the kit. The kit was made for quantifying the NF-κB bound to the solid phase by ELISA after adding an NF-κB solution to the wells in which the NF-κB (p65 protein) consensus binding sequence was immobilized and after washing the resultant. By this measurement method, the higher the binding capacity of the oligonucleotide to the NF-κB, the smaller amount of the NF-κB quantified by the ELISA.
(§2) More concretely, the above-described measurement was carried out as follows concretely: Each SODN solution was serially diluted with Complete Binding Buffer contained in the kit to prepare test samples (common ratio: 3-fold, 4 times, n=3). […] After allowing coloration for 10 minutes, the Stop Solution was added to stop the reaction, and the absorbances at 450 nm and 630 nm were measured.
(§3) The absorbance at 630 nm was subtracted from the absorbance at 450 nm and the mean value of the blanks was further subtracted from the resultant, and the percentage of the mean value of each concentration based on the mean value of the controls was calculated. The concentration at which the calculated value was 50% (i.e., at which the binding was inhibited by 50%) was calculated from the regression lines between two points interposing 50% (an analysis software Graph Pad PRISM 4, GraphPad SOFTWARE was used). […]

The target in data set [2] is T1, NF-kB p65 (RelA). Description: competition; primary screen 2.10. As to conditions: protein: extract; tags: TPA and CI-stimulated Jurkat nuclear extract, Active Motif TransAM kit. As for the experimental part:
as §1, §2, §3

T1 sequence (Q04206 whole entry, one chain of several): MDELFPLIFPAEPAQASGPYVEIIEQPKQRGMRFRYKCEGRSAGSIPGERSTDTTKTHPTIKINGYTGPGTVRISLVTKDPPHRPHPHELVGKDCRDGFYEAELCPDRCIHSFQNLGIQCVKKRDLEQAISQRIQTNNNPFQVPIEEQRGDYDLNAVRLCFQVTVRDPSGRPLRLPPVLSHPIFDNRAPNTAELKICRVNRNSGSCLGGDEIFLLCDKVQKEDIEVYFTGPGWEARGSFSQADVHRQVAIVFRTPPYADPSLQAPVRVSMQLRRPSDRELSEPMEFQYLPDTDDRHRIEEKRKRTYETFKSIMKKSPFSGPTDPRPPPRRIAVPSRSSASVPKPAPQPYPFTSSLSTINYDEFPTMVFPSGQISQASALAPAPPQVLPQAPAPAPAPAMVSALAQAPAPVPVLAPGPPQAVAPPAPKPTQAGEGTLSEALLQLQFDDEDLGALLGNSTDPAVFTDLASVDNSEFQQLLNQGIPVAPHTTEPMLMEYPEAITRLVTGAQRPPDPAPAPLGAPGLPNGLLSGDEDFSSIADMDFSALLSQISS

B1: SODN30 (dsDNA)
DNA 1: GGCTGGGATTTCCCGCGG
DNA 2: CCGCGGGAAATCCCAGCC
modifications: PS all bonds, both strands
In data set [1], B1 showed an IC50 of 1.87 nM.

B2: SODN36 (dsDNA)
DNA 1: CTCGGGATTTCCCAGCTCG
DNA 2: CGAGCTGGGAAATCCCGAG
modifications: PS all bonds, both strands
Molecule B2 showed a half-maximal inhibitory concentration (IC50) in data set [2] of 2.61 nM.

By IC50 is commonly meant the concentration at which inhibition is half-maximal. Low values mean greater potency in that assay, high ones weaker potency in that assay.
